From US20040235029A1 come the findings set out here.

The assay addresses exonuclease V (ExoV) of E. coli, a component of RecBCD holoenzyme (E. coli) (UniProt P08394). Nature of the assay: cell-based or functional assay.
Chain of UniProt P08394 (P08394 2-1180 limits assumed, chain 1 of 3): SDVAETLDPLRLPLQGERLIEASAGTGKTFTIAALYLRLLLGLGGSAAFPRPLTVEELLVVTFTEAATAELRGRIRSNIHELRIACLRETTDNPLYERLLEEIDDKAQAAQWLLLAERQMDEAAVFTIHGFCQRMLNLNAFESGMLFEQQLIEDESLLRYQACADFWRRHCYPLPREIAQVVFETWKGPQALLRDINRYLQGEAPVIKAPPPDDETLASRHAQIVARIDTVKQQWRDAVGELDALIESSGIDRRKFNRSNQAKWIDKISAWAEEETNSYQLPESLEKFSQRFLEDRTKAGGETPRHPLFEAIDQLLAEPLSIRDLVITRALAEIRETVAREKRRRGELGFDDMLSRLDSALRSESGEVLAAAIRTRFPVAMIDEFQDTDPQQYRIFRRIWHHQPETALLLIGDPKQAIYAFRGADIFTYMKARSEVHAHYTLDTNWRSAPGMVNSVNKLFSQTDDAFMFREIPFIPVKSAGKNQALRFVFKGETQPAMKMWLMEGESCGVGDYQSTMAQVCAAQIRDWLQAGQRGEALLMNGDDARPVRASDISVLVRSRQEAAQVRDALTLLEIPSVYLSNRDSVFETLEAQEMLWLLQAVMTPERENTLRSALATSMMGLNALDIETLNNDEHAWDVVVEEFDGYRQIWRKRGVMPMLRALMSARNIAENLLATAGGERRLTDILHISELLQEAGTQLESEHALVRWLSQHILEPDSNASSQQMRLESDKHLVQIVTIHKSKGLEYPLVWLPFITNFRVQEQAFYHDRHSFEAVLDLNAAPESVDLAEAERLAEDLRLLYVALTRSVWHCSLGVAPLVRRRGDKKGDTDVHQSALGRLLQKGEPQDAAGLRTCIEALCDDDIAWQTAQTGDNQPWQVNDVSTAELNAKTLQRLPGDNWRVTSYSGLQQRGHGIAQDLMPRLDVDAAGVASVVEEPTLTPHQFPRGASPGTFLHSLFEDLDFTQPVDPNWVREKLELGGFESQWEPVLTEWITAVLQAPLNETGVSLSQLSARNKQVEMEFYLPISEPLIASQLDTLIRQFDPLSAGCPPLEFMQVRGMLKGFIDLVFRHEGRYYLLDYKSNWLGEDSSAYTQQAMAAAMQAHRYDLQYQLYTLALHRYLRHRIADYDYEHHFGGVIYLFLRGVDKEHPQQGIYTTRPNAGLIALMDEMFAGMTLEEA
Chain of UniProt P08394 (P07648 whole entry, chain 2 of 3, further chain): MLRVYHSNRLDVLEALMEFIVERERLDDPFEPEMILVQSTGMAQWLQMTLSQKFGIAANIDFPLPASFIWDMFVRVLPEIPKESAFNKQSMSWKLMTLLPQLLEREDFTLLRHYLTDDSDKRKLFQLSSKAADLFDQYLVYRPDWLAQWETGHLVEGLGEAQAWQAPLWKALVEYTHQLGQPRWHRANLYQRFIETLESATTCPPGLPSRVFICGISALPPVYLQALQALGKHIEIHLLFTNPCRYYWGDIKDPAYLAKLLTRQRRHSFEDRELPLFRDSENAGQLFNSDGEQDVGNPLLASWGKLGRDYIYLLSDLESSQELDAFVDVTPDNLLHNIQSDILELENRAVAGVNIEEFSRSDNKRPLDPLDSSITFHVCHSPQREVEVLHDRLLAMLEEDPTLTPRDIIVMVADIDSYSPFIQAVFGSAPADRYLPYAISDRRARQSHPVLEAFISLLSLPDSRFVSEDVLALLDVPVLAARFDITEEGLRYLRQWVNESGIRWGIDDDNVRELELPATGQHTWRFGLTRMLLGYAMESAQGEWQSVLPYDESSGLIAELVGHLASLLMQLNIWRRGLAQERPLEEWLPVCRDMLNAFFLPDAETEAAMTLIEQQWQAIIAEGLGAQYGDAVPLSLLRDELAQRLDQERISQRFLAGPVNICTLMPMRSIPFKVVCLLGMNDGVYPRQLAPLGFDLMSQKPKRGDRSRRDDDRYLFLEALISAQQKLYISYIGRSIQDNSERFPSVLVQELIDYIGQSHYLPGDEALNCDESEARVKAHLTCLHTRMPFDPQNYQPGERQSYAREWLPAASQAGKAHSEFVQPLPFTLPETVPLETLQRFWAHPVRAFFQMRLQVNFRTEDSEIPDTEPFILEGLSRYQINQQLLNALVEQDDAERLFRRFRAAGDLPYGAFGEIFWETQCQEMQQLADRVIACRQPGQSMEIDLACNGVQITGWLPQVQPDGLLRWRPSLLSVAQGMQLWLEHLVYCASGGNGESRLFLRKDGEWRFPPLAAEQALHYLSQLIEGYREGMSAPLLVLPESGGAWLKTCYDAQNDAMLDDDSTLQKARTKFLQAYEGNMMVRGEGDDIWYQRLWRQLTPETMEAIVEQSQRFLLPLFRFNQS
Chain of UniProt P08394 (P04993 whole entry, chain 3 of 3, further chain): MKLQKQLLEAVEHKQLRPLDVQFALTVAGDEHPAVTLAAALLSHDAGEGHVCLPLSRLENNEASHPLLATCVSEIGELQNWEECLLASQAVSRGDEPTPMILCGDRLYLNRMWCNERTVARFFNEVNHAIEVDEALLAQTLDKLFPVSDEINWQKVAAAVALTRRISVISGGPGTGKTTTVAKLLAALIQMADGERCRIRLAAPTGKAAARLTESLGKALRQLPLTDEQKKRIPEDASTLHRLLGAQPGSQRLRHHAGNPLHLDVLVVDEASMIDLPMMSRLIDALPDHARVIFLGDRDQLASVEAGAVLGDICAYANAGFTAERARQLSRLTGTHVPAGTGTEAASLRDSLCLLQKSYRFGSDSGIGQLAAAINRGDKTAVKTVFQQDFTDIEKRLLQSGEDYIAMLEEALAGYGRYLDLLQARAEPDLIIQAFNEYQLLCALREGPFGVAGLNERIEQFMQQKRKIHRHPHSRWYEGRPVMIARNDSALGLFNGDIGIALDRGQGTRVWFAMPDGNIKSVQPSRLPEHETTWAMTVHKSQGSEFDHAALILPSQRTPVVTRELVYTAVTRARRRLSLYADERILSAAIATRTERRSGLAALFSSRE

Substance “GamS protein of bacteriophage lambda with C-terminal 6His tag (from UniProt P03702 41-138)” had a GFP expression from linear template in batch IVT with co-expressed GamS plasmid template (Coomassie staining of gel) greater than 2 fold; a GFP expression from linear template in batch IVT with crude GamS (PAGE, Coomassie), against control reaction without GamS of 2 fold; a GFP protein synthesis from a linear template in batch mode IVT (Coomassie staining of gel), against control reactions lacking GamS of 3 fold.
